Patent publication US20230382979A1 (ADAPTIVE BIOTECHNOLOGIES, published 2023)
Positions count from the first letter of the chain named.

B1: antibody 1871 (antibody, V domains shown)
VH: EVQLVESGGGLVKPGGSLRLSCVASGFSFSIYSMNWVRQAPGKGLEWVSYISSSSSYKYYADSVKGRFSVSRDNAKNSLYLQLNGLRAEDTAVYYCARDGYCPKGVCTYYGMDVWGQGTTVTVSA
VL: EIVMTQSPATLSVSPGERVTLSCRASQSVRSRLAWFQQKPGQAPRLLIYDASIRATGIPARFSGSGSGTEFTLIISSLQSEDFAVYYCQQYDNWPPAYTFGQGTKLEIK
B2: antibody 1814 (antibody, V domains shown)
VH: QVQLQESGPGLVKPSETLSLTCSVSGGSINYYYWSWIRQTPGQGLEWIGFIYSSGTTNYNPSLKSRVTMSKDTAKKQFSLKLTSVTAADSAVYYCARHSRSCTNGVCQTYYYYALDVWGHGTTVTVSS
VL: QSVLTQPPSVSGAPGQRVTISCTGSGSNIGSGYDVHWYQQLPGRAPKLLIYRNRNRPSGVPDRFSGSKSGTSASLAIAGLQSEDEGDYFCQSYDGRLGESAVFGGGTRLTVL
B3: antibody 1815 (antibody, V domains shown)
VH: B2 VH with Q39K, T40S, Q43K, T68S, K71I, D72G, A74S, K76R, T83S
VL: QSVLTQPPSVSGAPGQRVTISCTGSSSNIGAGYDVHWYQQLPGTAPKLLIYANTHRPSGVPDRFSASKSGTSASLAIAGLQAEDEGDYYCQSYDGSLSESAVFGGGTRLTVL
B4: antibody 2866 (antibody, V domains shown)
VH: QVQLVQSGAEVKKPGSSVKVSCKASGGTFSSYSISWVRQAPGQGLEWMGGLAPIFHTPNYAQKFQGRVTITADESTSTAYMELSSLRSEDTAVYYCARVAGAGWGVYGAFDYWGQGTLVTVSS
VL: not shown
B5: antibody 2788 (antibody, V domains shown)
VH: QVQLVQSGAEVKKPGASVKVSCKVSGYTLIELSMHWVRQAPGKGLEWMGGFDPEGAETIYAQKFQGRVTMTEDTSTDTAYMELSSLRSDDTAVYYCATGPAVFAANWFDPWGQGTLVTVSS
VL: QSALTQPPSASGSPGQSVTISCTGTSSDIGNYNNVSWYQQHPGKAPKLMIYDVIKRPSGVPDRFSGSKSGNTASLTVSGLQAEDEADYYCSSYAGKSYVFGTGTKVTVL
B6: antibody 2598 (antibody, V domains shown)
VH: QVQLQESGPGLVKPSGTLSLTCVVSGGSISSSNWWSWVRQPPGKGLEWIGETFHSGSFNYNPSLKSRVTISVDKSKNQFSLKLSSVTAADTAIYYCATTRVGYEGHFYYYGMDVWGQGTTVTVSS
VL: DIQMTQSPSSVSASVGDRVTITCRASQGISSWLAWYQQKPGKAPKLLIYAASSLQSGVPSRFSGSGSGTDFTLTISSLQPEDFATYYCQQANRFPWTFGQGTKVEIK
B7: antibody 2019 (antibody, V domains shown)
VH: QVQLVESGGGVVQPGGSLSLSCAASGLSFSSYGMHWVRQAPGKGLEWVAFIRYDVSNKYYADSVKGRFTISRDNSKNTLYLQMNSLRVEDTAVYYCATWAPLDDGMDVWGQGTTVTVSS
VL: SYELTQPPSVSVSPGQTARITCSGDALPKQYAYWYQQKPGQAPVLVIYKDTERPSGIPERFSGSSSGTTVTLTISGVQAEDEADYYCQSGDSSGTFYVVFGGGTKLTVL
B8: antibody 1238 (antibody, V domains shown)
VH: QVQLVQSGSELKKPGASVKVSCKASGYTFTNYGMNWVRQAPGQGLEWMGWINTNTGNPTNAQGFTGRFVFSLDTSVSTAYLQINSLKGEDTAVYYCARVADTGEMDVWGQGTTVTVSS
VL: B7 VL with T51S, G90A, T95S, F96Y, Y97N, V98W, V108I
B9: antibody 2854 (antibody, V domains shown)
VH: QVQLVQSGAEVKKPGSSVKVSCKASGGTFSSYAISWVRQAPGQGLEWMGGIIPIFHTANYAQKFQGRVTITADESTSTTYVELSSLRSEDTAMYYCATLPITIFGEEYSFDNWGQGTLVTVSS
VL: DVVMTQSPLSLPVTLGQPASISCRSSQSLVHSDGNTYLSWFQQRPGQSPRRLIYKVSDRDSGVPDRFSGSGSGTDFTLKISRVEAEDVGIYYCMQGTHWPPLTFGGGTKVEIK
B10: antibody 2646 (antibody, V domains shown)
VH: QVQLVQSGAEVKKPGASVKVSCKVSGYTLTELSIHWVRQAPGKGLEWMGGFDPEDAETIYAQKFQGRVTMTEDTSTDTAYMELSSLRSEDTAVYYCATATAVAGTVFNYQYHYGLDFWGQGTTVTVSS
VL: not shown
B11: antibody 1671 (antibody, V domains shown)
VH: EVQLVESGGGLVKPGGSLRLSCAASGFTFSTYNMNWVRQAPGKGLEWVSSISSNSNYIYYADSMKGRFTISRDNAKNSLYLQMNSLRAEDTAVYYCARDMDPLPYFDWLLYAFDVWGQGTMVTVSS
VL: EIVLTQSPGTLSLSPGERATLSCRASQSVSGSYLAWYQQKPGQAPRLLIYGASSRATGIPDRFSGSGSGTDFTLTISRLEPEDFAVYYCQQYGSPIFTFGPGTKVDIK

Each binder was assayed against T1, S2 subunit of the SARS-CoV-2 spike protein, WA01/2020 strain (SARS-CoV-2, WA01/2020 strain, UniProt P0DTC2 686-1213) (assay: ELISA on S2 (S2 Binding EC50)).

Question: B1 was tested. Which EC50 did it give?
Answer: Its EC50 is 0.103 nM.

Question: For B2, which EC50 is on record?
Answer: Its EC50 is 0.077 nM.

Question: How did the EC50 turn out when B3 was run?
Answer: Its EC50 is 0.127 nM.

The binders below were run against T2, SARS-CoV-2 spike (S) protein trimer, WA01/2020 strain (SARS-CoV-2, WA01/2020 strain, UniProt P0DTC2 16-1213) (assay: dose-response ELISA on coated antigen).

Question: How did the EC50 turn out when B4 was run?
Answer: The EC50 was 0.182 nM.

Question: For B5, which EC50 is on record?
Answer: The EC50 was 0.021 nM.

Question: B6 was tested. Which EC50 did it give?
Answer: The EC50 was 0.043 nM.

Question: B7 was tested. Which EC50 did it give?
Answer: Its EC50 is 0.024 nM.

Question: Which EC50 does the source give for B8 here?
Answer: The EC50 was 0.069 nM.

Question: With B9 as the binder, how does the EC50 read?
Answer: The EC50 was 0.152 nM.

Question: With B10 as the binder, how does the EC50 read?
Answer: Its EC50 is 0.024 nM.

Each binder was assayed against T3, S1 subunit of the SARS-CoV-2 spike protein, WA01/2020 strain (SARS-CoV-2, WA01/2020 strain, UniProt P0DTC2 16-685) (assay: dose-response ELISA on coated antigen).

Question: How did the EC50 turn out when B5 was run?
Answer: Its EC50 is 0.058 nM.

Question: With B6 as the binder, how does the EC50 read?
Answer: The EC50 was 0.084 nM.

Question: B8 was tested. Which EC50 did it give?
Answer: The EC50 was 0.028 nM.

Question: How did the EC50 turn out when B10 was run?
Answer: Its EC50 is 0.033 nM.

These binders were tested against SARS-CoV (2003) spike protein borne on lentiviral pseudovirus (SARS-CoV (2003), UniProt P59594 14-1255) (assay: cell-based or functional assay).

Question: How did the “Pseudo Neut, SARS-CoV 2003 IC50” value turn out when B1 was run?
Answer: Its value is 30 nM.

Question: For B2, which “Pseudo Neut, SARS-CoV 2003 IC50” value is on record?
Answer: Its value is 6.5 nM.

Question: How did the “Pseudo Neut, SARS-CoV 2003 IC50” value turn out when B3 was run?
Answer: Its value is 26 nM.

What follows are binders tested against SARS-CoV-2 spike protein, WA1/2020, borne on lentiviral pseudovirus (SARS-CoV-2, WA01/2020 strain, UniProt P0DTC2 14-1273) (assay: cell-based or functional assay).

Question: Which “Pseudo Neut, WA1/2020 IC50 (pM)” value does the source give for B1 here?
Answer: Its value is 440 pM.

Question: For B2, which “Pseudo Neut, WA1/2020 IC50 (pM)” value is on record?
Answer: The value was 171 pM.

Question: With B3 as the binder, how does the “Pseudo Neut, WA1/2020 IC50 (pM)” value read?
Answer: The value was 10.2 pM.

The binders below were run against T1, S2 subunit of the SARS-CoV-2 spike … (assay: dose-response ELISA; antigen taken from the column 'Structural data').

Question: B1 was tested. Which EC50 did it give?
Answer: Its EC50 is 0.103 nM.

Question: How did the EC50 turn out when B2 was run?
Answer: The EC50 was 0.077 nM.

Question: Which EC50 does the source give for B3 here?
Answer: The EC50 was 0.127 nM.

What follows are binders tested against T2, SARS-CoV-2 spike (S) protein trimer, … (assay: not given).

Question: B4 was tested. Which Kd did it give?
Answer: The Kd was 0.154 nM.

Question: Which Kd does the source give for B7 here?
Answer: The Kd was 0.057 nM.

Question: B9 was tested. Which Kd did it give?
Answer: Its Kd is 0.112 nM.

The binders below were run against T3, S1 subunit of the SARS-CoV-2 spike … (assay: not given).

Question: Which Kd does the source give for B11 here?
Answer: Its Kd is 0.0506 nM.

Question: Which Kd does the source give for B6 here?
Answer: Its Kd is 0.00823 nM.

Question: With B8 as the binder, how does the Kd read?
Answer: Its Kd is 0.027 nM.

Question: With B10 as the binder, how does the Kd read?
Answer: Its Kd is 0.00296 nM.

These binders were tested against T4, SARS-CoV-2 nucleocapsid (N) protein (SARS-CoV-2, UniProt P0DTC9 1-419) (assay: ELISA, antibody at 0.1 ug/mL).

Question: Does B4 bind?
Answer: Result: no binding (tested: 0.1 ug/mL)

Question: Does B5 bind?
Answer: Result: no binding (tested: 0.1 ug/mL)

Question: Does B7 bind?
Answer: Result: no binding (tested: 0.1 ug/mL)

Question: Does B8 bind?
Answer: Result: no binding (tested: 0.1 ug/mL)

Question: Does B9 bind?
Answer: Result: no binding (tested: 0.1 ug/mL)

What follows are binders tested against T3, S1 subunit of the SARS-CoV-2 spike … (assay: ELISA, antibody at 0.1 ug/mL).

Question: Does B4 bind?
Answer: Result: no binding (tested: 0.1 ug/mL)

Question: Does B7 bind?
Answer: Result: no binding (tested: 0.1 ug/mL)

Question: Does B9 bind?
Answer: Result: no binding (tested: 0.1 ug/mL)

Each binder was assayed against T1, S2 subunit of the SARS-CoV-2 spike … (assay: ELISA, antibody at 0.1 ug/mL).

Question: Does B4 bind?
Answer: Result: no binding (tested: 0.1 ug/mL)

Question: Does B5 bind?
Answer: Result: no binding (tested: 0.1 ug/mL)

Question: Does B7 bind?
Answer: Result: no binding (tested: 0.1 ug/mL)

Question: Does B8 bind?
Answer: Result: no binding (tested: 0.1 ug/mL)

Question: Does B9 bind?
Answer: Result: no binding (tested: 0.1 ug/mL)

The binders below were run against T4, SARS-CoV-2 nucleocapsid (N) protein (assay: ELISA screening, antibody concentration not given).

Question: Does B1 bind?
Answer: Result: no binding (tested: not printed)

Question: Does B2 bind?
Answer: Result: no binding (tested: not printed)

Question: Does B3 bind?
Answer: Result: no binding (tested: not printed)

What follows are binders tested against T3, S1 subunit of the SARS-CoV-2 spike … (assay: ELISA screening, antibody concentration not given).

Question: Does B1 bind?
Answer: Result: no binding (tested: not printed)

Question: Does B2 bind?
Answer: Result: no binding (tested: not printed)

Question: Does B3 bind?
Answer: Result: no binding (tested: not printed)
